In US20210403579A1 (DELINIA, published 2021):

T1: Human ST2 (human, UniProt Q01638 19-328, limits assumed)
T1 construct: also called human ST2 protein; Interleukin 1 receptor-like 1
T1 sequence (looked up): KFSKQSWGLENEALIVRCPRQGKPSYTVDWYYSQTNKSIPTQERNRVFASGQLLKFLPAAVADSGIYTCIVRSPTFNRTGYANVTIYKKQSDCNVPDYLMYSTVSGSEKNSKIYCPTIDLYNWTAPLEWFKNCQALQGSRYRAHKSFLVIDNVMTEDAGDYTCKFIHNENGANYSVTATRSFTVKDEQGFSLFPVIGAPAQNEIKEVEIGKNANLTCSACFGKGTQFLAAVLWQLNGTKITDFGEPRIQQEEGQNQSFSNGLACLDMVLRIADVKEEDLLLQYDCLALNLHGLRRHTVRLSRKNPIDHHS


Target: T1, Human ST2
Assay: SPR (Carterra), antibody immobilized, ST2 analyte
Description: Binding of the reformatted human ST2 antibodies to the human and mouse ST2 proteins was evaluated by surface plasmon resonance (SPR), using a high throughput antibody screening and characterization platform from Carterra (Salt Lake City, Utah).

Binder	Kd [nM]	koff [s⁻¹]	kon [M⁻¹ s⁻¹]
Human ST2 IgG1 Antibody 21 (antibody, V domains shown, IgG1; also called ST2 Antibody 21) VH: QVQLVQSGAEVKKPGASVKVSCKASGYTFSNHYMHWVRQAPGQGLEWMGWVNPTSGNTGYAQKFQGRVTMTRDTSTSTVYMELSSLRSEDTAVYYCARDLGVTYFDLWGRGTLVTVSS VL: DIQMTQSPSSLSASVGDRVTITCRASQGISSWLAWYQQKPGKAPKLLIYEASHLETGVPSRFSGSGSGTDFTLTISSLQPEDFATYYCLQDYNYPLTFGGGTKVEIKR	805	0.017	21000
Human ST2 IgG1 Antibody 29 (antibody, V domains shown, IgG1; also called ST2 Antibody 29) VH: QVQLVQSGAEVKKPGASVKVSCKASGGTFTGYFIHWVRQAPGQGLEWMGWMNPNSGNTGYAQKFQGRVTMTRDTSTSTVYMELSSLRSEDTAMYYCAREGQGVVPVDYWGQGTLVTVSS VL: DIQMTQSPSSLSASVGDRVTITCRASQSISSWLAWYQQKPGKAPKLLIYDATNLETGVPSRFSGSGSGTDFTLTISSLQPEDFATYYCLQDYNYPLTFGQSTKVEIKR	480	0.0065	14000
Human ST2 IgG1 Antibody 25 (antibody, V domains shown, IgG1; also called ST2 Antibody 25) VH: QVQLVQSGAEVKKPGSSVKVSCKASGGTFSNYAISWVRQAPGQGLEWMGWISAYNGNTNYAQKFQGRVTMTRDTSTSTVYMELSSLRSEDTAVYYCARSTNALDYWGQGTLVTVSS VL: DIQMTQSPSSLSASVGDRVTITCRASQGIRSNLDWYQQKPGKAPKLLISIVSNLGSGVPSRFSGSGSGTDFTLTISSLQPEDFATYYCLQHNSNPPTFGGGTKVEIKR	193	0.03	150000
Human ST2 IgG1 Antibody 26 (antibody, V domains shown, IgG1; also called ST2 Antibody 26) VH: QVQLVQSGAEVKKPGSSVKVSCKASGYTFSDYYMHWVRQAPGQGLEWMGGILPVFGTATYAQKFQGRVTITADESTSTAYMELSSLRSEDTAVYYCARGFGYFDYWGQGTLVTVSS VL: not shown	264	0.14	530000
Human ST2 IgG1 Antibody 23 (antibody, V domains shown, IgG1; also called ST2 Antibody 23) VH: EVQLLESGGGLVKPGGSLRLSCAASGFTFSSYWMHWVRQAPGKGLEWVSSISSRSSYIYYADSVKGRFTISRDDSKNTLYLQMNSLKTEDTAVYYCAREGNGMDVWGQGTTVTVSS VL: DIQMTQSPSSLSASVGDRVTITCQASQDIGSYLNWYQQKPGKAPKLLIYAASSLQSGVPSRFSGSGSGTDFTLTISSLQPEDFATYYCLQSYSTPFTFGGGTKVEIKR	688	0.1	150000
Human ST2 IgG1 Antibody 27 (antibody, V domains shown, IgG1; also called ST2 Antibody 27) VH: QVQLVQSGAEVKKPGASVKVSCKASGYTFTGQYMHWVRQAPGQGLEWMGIINPSGGSTSYAQKFQGRVTMTRDTSTSTVYMELSSLRSEDTAVYYCAGSYYPYYYYGMDVWGQGTTVTVSS VL: DIQMTQSPSSLSASVGDRVTITCRASQNIGYFLHWYQQKPGKAPKLLIYAASSLQSGVPSRFSGSGSGTDFTLTISSLQPEDFATYYCQQSYSPPLTFGGGTKVEIKR	106	0.048	450000
Human ST2 IgG1 Antibody 28 (antibody, V domains shown, IgG1; also called ST2 Antibody 28) VH: QVQLVQSGAEVKKPGSSVKVSCKASGGTFGNYGINWVRQAPGQGLEWMGGIIPVFGTTNYAQKFQGRVTITADESTSTAYMELSSLRSEDTAVYYCARGLRYYYGMDVWGQGTTVTVSS VL: DIVMTQSPLSLPVTPGEPASISCRSSQSLLHSNGYNYLDWYLQKPGQSPQLLIYGASTLQSGVPDRFSGSGSGTDFTLKISRVEAEDVGVYYCMQALQNPLTFGGGTKVEIKR	426	0.066	160000
Human ST2 IgG1 Antibody 30 (antibody, V domains shown, IgG1; also called ST2 Antibody 30) VH: QVQLVQSGAEVKKPGSSVKVSCKASGYTFTTYGITWVRQAPGQGLEWMGGIIPIFGTANYAQKFQGRVTITADESTSTAYMELSSLRSEDTAVYYCAKLSGSSGSWDYYYYYGMDVWGQGTLVTVSS VL: DIVMTQSPLSLPVTPGEPASISCRSSQSLLHSNGYNYLDWYLQKPGQSPQLLIYAASNLQSGVPDRFSGSGSGTDFTLKISRVEAEDVGVYYCMQALQTPITFGQSTRLEIKR	155	0.029	190000
Human ST2 IgG1 Antibody 33 (antibody, V domains shown, IgG1; also called ST2 Antibody 33) VH: QVQLVQSGAEVKKPGSSVKVSCKASGDTFDTYAISWVRQAPGQGLEWMGGIIPIFGTANYAQKFQGRVTITADESTSTAYMELSSLRSEDTAVYYCARSRGRGYSYGSGLFDYWGQGTLVTVSS VL: DIVMTQSPLSLPVTPGEPASISCRSSESLLITNGFNYIDWYLQKPGQSPQLLIYLGSNRAAGVPDRFSGSGSGTDFTLKISRVEAEDVGVYYCMQALQTPITFGQGTKVEIKR	529	0.13	240000
Human ST2 IgG1 Antibody 22 (antibody, V domains shown, IgG1; also called ST2 Antibody 22) VH: EVQLLESGGGLVQPGGSLRLSCAASGFKFRTFWMNWVRQAPGKGLEWVSVISNGGDATHYADSVKGRFTISRDNSKNTLYLQMNSLRAEDTAVYYCARVDCSGGSCYLGYWGQGTLVTVSS VL: DIQMTQSPSSLSASVGDRVTITCRASESIGRYLNWYQQKPGKAPKLLIYGTSNLESGVPSRFSGSGSGTDFTLTISSLQPEDFATYYCQQSYSTPPTFGQGTKVEIKR	90	0.048	530000

Continued by falling Kd, values first:

Kd [nM]	koff [s⁻¹]	kon [M⁻¹ s⁻¹]	Binder
1200	0.055	45000	Human ST2 IgG1 Antibody 24 (antibody, V domains shown, IgG1; also called ST2 Antibody 24) VH: QVQLVQSGAEVKKPGSSVKVSCKASGGTFSSYAISWVRQAPGQGLEWMGGIIPIFGTANYAQKFQGRVTITADESTSTAYMELSSLRSEDTAVYYCAKTPLGRGYGLFDYWGQGTLVTVSS VL: not shown
274	0.12	430000	Human ST2 IgG1 Antibody 31 (antibody, V domains shown, IgG1; also called ST2 Antibody 31) VH: QVQLVQSGAEVKKPGSSVKVSCKASGGTFSTYAFSWVRQAPGQGLEYMGGIIPMFGTANYAQKFQGRVTITADESTSTAYMELSSLRSEDTAVYYCAGERGYGSLDYWGQGTLVTVSS VL: DIQMTQSPSSLSASVGDRVTITCRASQGIGSWLAWYQQKPGKAPKLLIYAASSLQSGVPSRFSGSGSGTDFTLTISSLQPEDFATYYCQQSYTFPYTFGQGTKLEIKR
252	0.061	240000	Human ST2 IgG1 Antibody 32 (antibody, V domains shown, IgG1; also called ST2 Antibody 32) VH: EVQLLESGGGLVQPGGSLRLSCAASGFTFSNSDMNWVRQAPGKGLEWVSFISSSSGYTYYADSVKGRFTISRDNSKNTLYLQMNSLRAEDTAVYYCARANNNWNFYFDYWGQGTLVTVSS VL: DIQMTQSPSSLSASVGDRVTITCRASQSINNWLAWYQQKPGKAPKLLIYSASSLQSGVPSRFSGSGSGTDFTLTISSLQPEDFATYYCQQSYDTPITFGQGTKVEIKR
109	0.0011	10000	Human ST2 IgG1 Antibody 34 (antibody, V domains shown, IgG1; also called ST2 Antibody 34) VH: QVQLVQSGAEVKKPGASVKVSCKASGQTFTDYAINWVRQAPGQGLEWMGWMNPNSGNTGYAQKFQGRVTMTRDTSTSTVYMELSSLRSEDTAVYYCARETLEQQLPFDYWGQGTLVTVSS VL: DIQMTQSPSSLSASVGDRVTITCRASQSISSWLAWYQQKPGKAPKLLIYAASTLQSGVPSRFSGSGSGTDFTLTISSLQPEDFATYYCQQYYSTLYTFGQGTKVEIKR
104	0.016	160000	Human ST2 IgG1 Antibody 35 (antibody, V domains shown, IgG1; also called ST2 Antibody 35) VH: QVQLVQSGAEVKKPGASVKVSCKASAYTFTSYGISWLRQAPGQGLEWMGWINPNSGNTGYAHKFQGRVTMTRDTSTSTVYMELSSLRSEDTAVYYCARGGSGWPTWGQGTLVTVSS VL: DIQMTQSPSSLSASVGDRVTITCQASQDISNYLNWYQQKPGKAPKLLIYGASSLQSGVPSRFSGSGSGTDFTLTISSLQPEDFATYYCQQANTFPFTFGPGTKVDIKR
